Assay results published in patent US6861234B1, “Method of epitope discovery” (MannKind Corporation, priority 2000, dated 2005).

Target: HLA-A2.1 (Homo sapiens, UniProt P04439, D140Y/D185E/D98H/E176V/E277Q/G131W/G231S/I119V/I121R/I166T/I218V/L300P/L318F/N151K/N90K/P208A/P217A/Q86G/Q94H/R138H/R169H/T345S)
Test: T2 cell HLA-A2.1 stabilisation (peptide binding) assay by flow cytometry, method of Stauss et al.
Assay type: cell-based
Settings: T2 cells, β2 microglobulin 5 μg/ml, peptides at 100, 10, 1 and 0.1 μg/ml, 4 hours 37° C., W6/32 + FITC anti-mouse IgG, FACScan; FIG. 3
Source text: The epitope is synthesized and tested for its ability to bind a MHC receptor. For example, in one preferred assay, cells displaying the MHC I receptor can be used to measure the binding affinity of candidate peptides labeled with a radionuclide. Another preferred approach measures the ability of a peptide to bind to an MHC I receptor using a cell culture-based assay. In this assay, cells lacking transporters associated with antigen processing (TAP) are used to determine whether or not a candidate peptide has the ability to bind to the MHC I receptor. […] When the cell is flooded with exogenous peptide that can bind to the MHC I cleft, expression of the receptor is restored. This can be monitored by several means such as RIA, FACS, and the like. Using TAP^− cells, one of skill in the art can screen large numbers of potential candidate peptides for receptor binding without having to perform detailed binding affinity analysis.
Binding of a candidate epitope to HLA-A2.1 was assayed according to the method of Stauss et al., (Proc Natl Acad Sci USA 89(17):7871-5 (1992)). […] Peptides were added at 100, 10, 1 and 0.1 μg/ml. The plate was rocked gently for 2 minutes and then incubated for 4 hours in a 5% CO2 incubator at 37° C. After the unbound peptide was removed by washing twice with IMDM, a saturating amount of monoclonal antibody W6/32 (Sigma) was added. […]

Sequence: FLPWHRLFLL (Homo sapien) [tyrosinase 207-216]
- binding to HLA-A2.1 (surface HLA-A2.1 molecules stabilized by peptide binding, fluorescence): bind HLA-A2.1 to a similar extent as the known A2.1 binder FLPSDYFPSV
